In patent US20200317768A1 (published 2020):

Assays:
Test in all cases: SPR (Biacore), antibody captured, FcgR analyte
[1] = biological target: T1, cynomolgus monkey FcγRIIa3 extracellular domain, C-terminal His-tag (cynomolgus monkey)
T1 construct: also called cyno FcγRIIa3; cynoFcgRIIa3
T1 chain: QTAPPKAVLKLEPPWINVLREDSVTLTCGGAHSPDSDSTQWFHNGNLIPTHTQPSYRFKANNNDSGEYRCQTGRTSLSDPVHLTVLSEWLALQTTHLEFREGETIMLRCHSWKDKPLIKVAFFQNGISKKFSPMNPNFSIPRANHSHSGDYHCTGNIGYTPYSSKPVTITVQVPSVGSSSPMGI
Method: (§1) The kinetic analysis of interactions between these antibodies and FcγR was carried out using BIACORE® T200 or BIACORE® 4000 (GE Healthcare). HBS-EP+ (GE Healthcare) was used as the running buffer, and the measurement temperature was set to 25° C. A chip produced by immobilizing Protein A. Protein A/G or mouse anti-human IgG kappa light chain (BD Biosciences) onto a Series S Sensor Chip CM4 or CM5 (GE Healthcare) by the amine-coupling method was used. […] After the measurement, the antibody captured on the chip was washed off by allowing reaction with 10 mM glycine-HCl, pH1.5 and 25 mM NaOH so that the chip was regenerated and used repeatedly. The sensorgrams obtained as measurement results were analyzed by the 1:1 Langmuir binding model using the BIACORE® Evaluation Software to calculate the binding rate constant ka (L/mol/s) and dissociation rate constant kd (l/s), and the dissociation constant KD (mol/L) was calculated from these values. […] Regarding such interactions, KD values were calculated using the following 1:1 binding model described in BIACORE® T100 Software Handbook BR1006-48 Edition AE.
(§2) The behavior of interacting molecules according to the 1:1 binding model on BIACORE® can be described by Equation 1: Req=C·R max/(KD+C)+RI, wherein, Req is a plot of steady-state binding levels to analyte concentration. C is concentration, RI is bulk refractive index contribution in the sample, and Rmax is analyte binding capacity of the surface. When this equation is rearranged, KD can be expressed as Equation 2: KD=C·Rmax/(Req−RI)−C. KD can be calculated by substituting the values of Rmax, RI, and C into Equation 1 or Equation 2. From the current measurement conditions, RI=0, C=2 μmol/L can be used.

[2] = biological target: T2, human FcγRIIb extracellular domain, C-terminal His-tag (human, UniProt P31994 43-217)
T2 construct: also called human FcgRIIb; FcgRIIb
T2 sequence: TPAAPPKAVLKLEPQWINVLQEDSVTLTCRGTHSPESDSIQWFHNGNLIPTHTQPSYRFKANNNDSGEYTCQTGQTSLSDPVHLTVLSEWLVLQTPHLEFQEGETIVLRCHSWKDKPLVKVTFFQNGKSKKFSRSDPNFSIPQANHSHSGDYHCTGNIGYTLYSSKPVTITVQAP
Method: as §1, §2

[3] = biological target: T3, human FcγRIIaH extracellular domain, C-terminal His-tag (human, UniProt P12318 34-217)
T3 construct: also called human FcγRIIa (type H); FcgRIIaH
T3 sequence: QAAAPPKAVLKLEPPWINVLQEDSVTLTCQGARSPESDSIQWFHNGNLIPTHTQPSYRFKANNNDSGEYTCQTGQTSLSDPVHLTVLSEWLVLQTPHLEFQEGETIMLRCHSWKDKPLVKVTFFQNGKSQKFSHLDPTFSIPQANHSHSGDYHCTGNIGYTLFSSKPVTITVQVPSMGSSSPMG
Method: as §1, §2

[4] = biological target: T4, cynomolgus monkey FcγRIIIaS extracellular domain, C-terminal His-tag (cynomolgus monkey, UniProt Q8SPW2 21-206 at identity 1.00))
T4 construct: also called cyno FcγRIIIaS; cynoFcγRIIIaS
T4 chain: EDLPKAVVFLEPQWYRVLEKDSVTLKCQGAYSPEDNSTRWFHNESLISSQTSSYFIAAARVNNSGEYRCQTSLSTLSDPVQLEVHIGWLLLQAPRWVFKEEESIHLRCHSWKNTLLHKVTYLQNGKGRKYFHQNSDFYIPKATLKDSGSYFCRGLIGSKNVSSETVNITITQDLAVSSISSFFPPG
Method: as §1, §2

[5] = biological target: T5, cynomolgus monkey FcγRIIb extracellular domain, C-terminal His-tag (cynomolgus monkey)
T5 construct: also called cyno FcγRIIb; cynoFcγRIIb
T5 chain: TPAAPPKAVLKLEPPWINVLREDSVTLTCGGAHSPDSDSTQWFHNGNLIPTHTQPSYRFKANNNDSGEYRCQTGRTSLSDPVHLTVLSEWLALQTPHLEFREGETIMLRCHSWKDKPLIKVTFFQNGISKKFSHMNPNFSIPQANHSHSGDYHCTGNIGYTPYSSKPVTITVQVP
Method: as §1, §2

[6] = biological target: T6, human FcγRIIIaV extracellular domain, C-terminal His-tag (human, UniProt P08637 17-208)
T6 construct: also called human FcgRIIIaV; FcgRIIIaV
Method: as §1, §2

[7] = biological target: T7, cynomolgus monkey FcγRIIa1 extracellular domain, C-terminal His-tag (cynomolgus monkey)
T7 construct: also called cyno FcγRIIa1; cynoFcgRIIa1
T7 chain: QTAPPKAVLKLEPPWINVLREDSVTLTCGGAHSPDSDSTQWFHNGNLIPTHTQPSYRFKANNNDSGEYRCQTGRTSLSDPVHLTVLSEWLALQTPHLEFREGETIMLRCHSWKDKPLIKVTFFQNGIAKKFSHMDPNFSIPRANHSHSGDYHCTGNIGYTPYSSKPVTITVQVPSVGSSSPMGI
Method: as §1, §2

[8] = biological target: T8, human FcγRIIaR extracellular domain, C-terminal His-tag (human, UniProt P12318 34-217)
T8 construct: also called human FcγRIIa (type R); FcgRIIaR
T8 chain: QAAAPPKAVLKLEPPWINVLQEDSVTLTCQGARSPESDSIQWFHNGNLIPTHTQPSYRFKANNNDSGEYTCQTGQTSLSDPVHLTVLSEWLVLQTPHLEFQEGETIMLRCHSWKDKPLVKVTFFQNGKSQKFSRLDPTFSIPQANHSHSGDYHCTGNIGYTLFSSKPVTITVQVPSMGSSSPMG
Method: as §1, §2

[9] = biological target: T9, cynomolgus monkey FcγRIIa2 extracellular domain, C-terminal His-tag (cynomolgus monkey)
T9 construct: also called cyno FcγRIIa2; cynoFcgRIIa2
T9 chain: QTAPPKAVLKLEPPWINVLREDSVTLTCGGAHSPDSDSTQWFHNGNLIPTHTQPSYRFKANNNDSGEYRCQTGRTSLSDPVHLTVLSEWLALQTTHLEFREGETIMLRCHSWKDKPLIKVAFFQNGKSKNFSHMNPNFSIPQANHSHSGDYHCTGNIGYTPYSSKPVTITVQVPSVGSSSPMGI
Method: as §1, §2

T6 sequence (P08637 17-208 F176V): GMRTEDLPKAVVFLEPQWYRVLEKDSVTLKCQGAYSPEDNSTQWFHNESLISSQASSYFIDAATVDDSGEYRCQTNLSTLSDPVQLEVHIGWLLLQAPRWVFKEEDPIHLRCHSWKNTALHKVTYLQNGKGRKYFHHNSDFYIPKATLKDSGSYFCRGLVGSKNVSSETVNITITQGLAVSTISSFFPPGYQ

B1: M103205H795-MY210/M103202L889-SK1 (antibody, human IgG1, kappa)
heavy: QVTLKESGPVLVKPTETLTLTCTVSGIDLSHDDISWVRQAPGKGLEWVGIISYAGSTYYASWAKGRLTISKDTSKNQVVLTMTNMDPVDTATYYCARGVPAYSHGGDLWGQGTLVTVSSASTKGPSVFPLAPSSKSTSGGTAALGCLVKDYFPEPVTVSWNSGALTSGVHTFPAVLQSSGLYSLSSVVTVPSSSLGTQTYICNVNHKPSNTKVDKKVEPKSCDKTHTCPPCPAPELLNGPSVFLFPPKPKDTLMISRTPEVTCVVVDVSDEDPEVKFNWYVDGVEVHNAKTKPREEQYNSTYRVVSVLTVLHQDWLNGKEYKCKVSNTALPKPIEKTISKAKGQPREPQVYTLPPSREEMTKNQVSLTCLVKGFYPSDIAVEWESNGQPENNYKTTPPVLDSDGSFFLYSKLTVDKSRWQQGNVFSCSVMHEALHNHYTQKSLSLSP
light: DIVMTQSPATLSLSPGERATLSCTSSQSVYHANWLSWFQQKPGQPPKLLIYWASTLAYGVPSRFSGSGSGTDFTLTISSLQPEDAATYYCAGGYGGGRYAFGQGTKVEIKRTVAAPSVFIFPPSDEQLKSGTASVVCLLNNFYPREAKVQWKVDNALQSGNSQESVTEQDSKDSTYSLSSTLTLSKADYEKHKVYACEVTHQGLSSPVTKSFNRGEC
notes: Substitutions introduced into M103205H795-SG1; expressed with M103202L889-SK1 as light chain
With B1 the Kd [1] was 23000 nM, the Kd [2] was 980 nM and the Kd [3] was 880 nM. It also gave a Kd [4] of 2400 nM, a Kd [5] of 250 nM and a Kd [6] of 51000 nM. For the same binder, the Kd [7] was 950 nM, the Kd [8] was 14 nM and the Kd [9] was 840 nM.

B2: M103205H795-MY212/M103202L889-SK1 (antibody, human IgG1, kappa)
heavy: QVTLKESGPVLVKPTETLTLTCTVSGIDLSHDDISWVRQAPGKGLEWVGIISYAGSTYYASWAKGRLTISKDTSKNQVVLTMTNMDPVDTATYYCARGVPAYSHGGDLWGQGTLVTVSSASTKGPSVFPLAPSSKSTSGGTAALGCLVKDYFPEPVTVSWNSGALTSGVHTFPAVLQSSGLYSLSSVVTVPSSSLGTQTYICNVNHKPSNTKVDKKVEPKSCDKTHTCPPCPAPELLNGPVVFLFPPKPKDTLMISRTPEVTCVVVDVSDEDPEVKFNWYVDGVEVHNAKTKPREELYNSTYRVVSVLTVLHQDWLNGKEYKCKVSNTALPKPIEKTISKAKGQPREPQVYTLPPSREEMTKNQVSLTCLVKGFYPSDIAVEWESNGQPENNYKTTPPVLDSDGSFFLYSKLTVDKSRWQQGNVFSCSVMHEALHNHYTQKSLSLSP
light: DIVMTQSPATLSLSPGERATLSCTSSQSVYHANWLSWFQQKPGQPPKLLIYWASTLAYGVPSRFSGSGSGTDFTLTISSLQPEDAATYYCAGGYGGGRYAFGQGTKVEIKRTVAAPSVFIFPPSDEQLKSGTASVVCLLNNFYPREAKVQWKVDNALQSGNSQESVTEQDSKDSTYSLSSTLTLSKADYEKHKVYACEVTHQGLSSPVTKSFNRGEC
notes: as for B1
B2 showed a Kd [1] of 29000 nM, a Kd [2] of 630 nM and a Kd [3] of 800 nM. For the same binder, the Kd [4] was 2600 nM, the Kd [5] was 370 nM and the Kd [6] was 6500 nM. It also gave a Kd [7] of 560 nM, a Kd [8] of 1300 nM and a Kd [9] of 530 nM.

B3: M103205H795-MY288/M103202L889-SK1 (antibody, human IgG1, kappa)
heavy: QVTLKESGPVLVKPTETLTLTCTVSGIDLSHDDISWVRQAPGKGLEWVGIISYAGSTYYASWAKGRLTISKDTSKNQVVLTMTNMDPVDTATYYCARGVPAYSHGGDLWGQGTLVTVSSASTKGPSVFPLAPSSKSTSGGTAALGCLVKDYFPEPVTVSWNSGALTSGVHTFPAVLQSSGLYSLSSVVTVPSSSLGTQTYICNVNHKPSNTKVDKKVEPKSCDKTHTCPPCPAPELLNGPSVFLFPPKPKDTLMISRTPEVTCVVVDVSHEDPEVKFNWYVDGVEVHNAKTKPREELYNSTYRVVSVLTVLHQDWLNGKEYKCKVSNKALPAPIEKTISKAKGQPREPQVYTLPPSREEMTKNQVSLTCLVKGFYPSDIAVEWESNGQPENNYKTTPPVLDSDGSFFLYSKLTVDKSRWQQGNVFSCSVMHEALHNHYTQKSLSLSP
light: DIVMTQSPATLSLSPGERATLSCTSSQSVYHANWLSWFQQKPGQPPKLLIYWASTLAYGVPSRFSGSGSGTDFTLTISSLQPEDAATYYCAGGYGGGRYAFGQGTKVEIKRTVAAPSVFIFPPSDEQLKSGTASVVCLLNNFYPREAKVQWKVDNALQSGNSQESVTEQDSKDSTYSLSSTLTLSKADYEKHKVYACEVTHQGLSSPVTKSFNRGEC
notes: as for B1
In the case of B3, the Kd [1] is reported as 11000 nM, the Kd [2] is reported as 6200 nM and the Kd [3] is reported as 1400 nM. For the same binder, the Kd [4] was 13000 nM, the Kd [5] was 3200 nM and the Kd [6] was 68000 nM. It also gave a Kd [7] of 1500 nM, a Kd [8] of 8500 nM and a Kd [9] of 2000 nM.

B4: M103205H795-MY211/M103202L889-SK1 (antibody, human IgG1, kappa)
heavy: QVTLKESGPVLVKPTETLTLTCTVSGIDLSHDDISWVRQAPGKGLEWVGIISYAGSTYYASWAKGRLTISKDTSKNQVVLTMTNMDPVDTATYYCARGVPAYSHGGDLWGQGTLVTVSSASTKGPSVFPLAPSSKSTSGGTAALGCLVKDYFPEPVTVSWNSGALTSGVHTFPAVLQSSGLYSLSSVVTVPSSSLGTQTYICNVNHKPSNTKVDKKVEPKSCDKTHTCPPCPAPELLNGPVVFLFPPKPKDTLMISRTPEVTCVVVDVSDEDPEVKFNWYVDGVEVHNAKTKPREEQYNSTYRVVSVLTVLHQDWLNGKEYKCKVSNTALPKPIEKTISKAKGQPREPQVYTLPPSREEMTKNQVSLTCLVKGFYPSDIAVEWESNGQPENNYKTTPPVLDSDGSFFLYSKLTVDKSRWQQGNVFSCSVMHEALHNHYTQKSLSLSP
light: DIVMTQSPATLSLSPGERATLSCTSSQSVYHANWLSWFQQKPGQPPKLLIYWASTLAYGVPSRFSGSGSGTDFTLTISSLQPEDAATYYCAGGYGGGRYAFGQGTKVEIKRTVAAPSVFIFPPSDEQLKSGTASVVCLLNNFYPREAKVQWKVDNALQSGNSQESVTEQDSKDSTYSLSSTLTLSKADYEKHKVYACEVTHQGLSSPVTKSFNRGEC
notes: as for B1
With B4 the Kd [1] was 2700 nM, the Kd [2] was 520 nM and the Kd [3] was 1100 nM. The Kd [4] was 5000 nM, the Kd [5] was 470 nM and the Kd [6] was 4800 nM. It also gave a Kd [7] of 750 nM, a Kd [8] of 13000 nM and a Kd [9] of 530 nM.
